Laboratory results as given in US20260139033A1 (PRANA THERAPIES, published 2026).

Tests used:
recombinant human TSLP [1] = biological target: T1, recombinant human TSLP (human, UniProt Q969D9 29-159); assay: SPR (Biacore 3000, CM5 chip, 25 C): complex captured via protein A, TSLP as analyte, 1:1 fit; column 'TSLP binding(pM)'
T1 construct: also called thymic stromal lymphopoietin
Method: (§1) SPR studies were carried out on a Biacore 3000 instrument with a CM5 chip at 25° C. The running buffer comprised 25 mM Hepes, pH 7.5, 150 mM NaCl, 0.5 mg/ml BSA, 0.005% P20. Antibodies were captured via protein A using approximately a 1/50 dilution of each antibody in the running buffer and a 2-minute contact time at a 10 μl/min flow rate. Protein A was immobilized on a CM5 chip via standard amine coupling chemistry in 10 mM acetate pH 4.5. Approximately 800 RU of each antibody was captured. The surfaces were regenerated via a 10 mM glycine pH 1.5 between cycles. Between assays the chip was regenerated with a 2-minute pulse of 100 mM Phosphoric acid. Prior to setting up multicycle kinetic analysis analyte concentration was determined spectrophotometrically using an extinction coefficient of 72,880 M⁻¹ cm⁻¹ for IL4R and 18450 M⁻¹ cm⁻¹ for the TSLP proteins respectively. Analyte samples were prepared by diluting stocks into running buffer to a final concentration of 500 nM for the IL-4R and 25 nM for TSLP followed by serially diluting with a 2-fold series with an association time of 2.5 minutes at a 50 μl/min flow rate. Dissociation data was collected for a period of 1600 seconds. Raw data was analyzed using the Scrubber2 (Biologic Software, AU) program using a double referencing procedure where compound signal is corrected to a blank surface and a buffer injection over the captured antibody surface. Kinetic data was analyzed by fitting to a simple 1:1 binding model. […] The candidates are further described in Table 3.

recombinant human TSLP [2] = biological target: T1, recombinant human TSLP; assay: cell-based or functional assay
recombinant human TSLP [3] = biological target: T1, recombinant human TSLP; assay: SPR; column 'SPR (Biophysical binding): TSLP (pM)'
Method: as §1

[4] = biological target: IL-4R on human donor PBMC (B-cells) (human, UniProt P24394 26-825); assay: cell-based or functional assay

Kd (recombinant human TSLP [1]) [nM]	IC50, inhibition of TSLP responses (TARC secretion) in human PBMCs (recombinant human TSLP [2]) [nM]	Kd (recombinant human TSLP [3]) [nM]	IC50, CD23 upregulation on B cells of human PBMC in response to IL-4 (column 'Biological Assays: IL-4R (nM)') [4] [nM]	Binder
0.0083	7.8	0.0083	> 200	Candidate-26: Light chain C-terminal TRAP: Dupilumab-YTE_Linker-GS4_TSLP TRAP 2 [2 x TRAP 2] (bispecific antibody, human IgG4 S228P, kappa, The chains here are built from the component entries) heavy: EVQLVESGGGLEQPGGSLRLSCAGSGFTFRDYAMTWVRQAPGKGLEWVSSISGSGGNTYYADSVKGRFTISRDNSKNTLYLQMNSLRAEDTAVYYCAKDRLSITIRPRYYGLDVWGQGTTVTVSSASTKGPSVFPLAPCSRSTSESTAALGCLVKDYFPEPVTVSWNSGALTSGVHTFPAVLQSSGLYSLSSVVTVPSSSLGTKTYTCNVDHKPSNTKVDKRVESKYGPPCPPCPAPEFLGGPSVFLFPPKPKDTLYITREPEVTCVVVDVSQEDPEVQFNWYVDGVEVHNAKTKPREEQFNSTYRVVSVLTVLHQDWLNGKEYKCKVSNKGLPSSIEKTISKAKGQPREPQVYTLPPSQEEMTKNQVSLTCLVKGFYPSDIAVEWESNGQPENNYKTTPPVLDSDGSFFLYSRLTVDKSRWQEGNVFSCSVMHEALHNHYTQKSLSLSLG light: DIVMTQSPLSLPVTPGEPASISCRSSQSLLYSIGYNYLDWYLQKSGQSPQLLIYLGSNRASGVPDRFSGSGSGTDFTLKISRVEAEDVGFYYCMQALQTPYTFGQGTKLEIKRTVAAPSVFIFPPSDEQLKSGTASVVCLLNNFYPREAKVQWKVDNALQSGNSQESVTEQDSKDSTYSLSSTLTLSKADYEKHKVYACEVTHQGLSSPVTKSFNRGECGGGGSGGGGSGGGGSGGGGSESGYAQNGDLEDAELDDYSFSCYSQLEVNGSQHSLTCAFEDPDVNITNLEFEICGALVEVKCLNFRKLQEIYFIETKKFLLIGKSNICVKVGEKSLTCKKIDLTTIVKPEAPFDLSVVYREGANDFVVTFNTSHLQKKYVKVLMHDVAYRQEKDENKWTHVNLSSTKLTLLQRKLQPAAMYEIKVRSIPDHYFKGFWSEWSPSYYFRTPEINNSSGEMDGGSGGSGGSGGSGGSGGSGGSGGSGGSGGSGGSGGSGGSGGSGGSGGSGGSGGSGGSGGSGAAEGVQIQIIYFNLETVQVTWNASKYSRTNLTFHYRFNGDEAYDQCTNYLLQEGHTSGCLLDAEQRDDILYFSIRNGTHPVFTASRWMVYYLKPSSPKHVRFSWHQDAVTVTCSDLSYGDLLYEVQYRSPFDTEWQSKQENTCNVTIEGLDAEKCYSFWVRVKAMEDVYGPDTYPSDWSEVTCWQRGEIRDACAETPTPPKPKLSK
0.0162	2.37	0.0162	> 200	Candidate-42: Heavy and Light chain C-terminal TRAP: Dupilumab-YTE_Linker-GS4_TSLP TRAP 2 [4 x TRAP 2] (bispecific antibody, human IgG4 S228P, kappa, The chains here are built from the component entries) heavy: EVQLVESGGGLEQPGGSLRLSCAGSGFTFRDYAMTWVRQAPGKGLEWVSSISGSGGNTYYADSVKGRFTISRDNSKNTLYLQMNSLRAEDTAVYYCAKDRLSITIRPRYYGLDVWGQGTTVTVSSASTKGPSVFPLAPCSRSTSESTAALGCLVKDYFPEPVTVSWNSGALTSGVHTFPAVLQSSGLYSLSSVVTVPSSSLGTKTYTCNVDHKPSNTKVDKRVESKYGPPCPPCPAPEFLGGPSVFLFPPKPKDTLYITREPEVTCVVVDVSQEDPEVQFNWYVDGVEVHNAKTKPREEQFNSTYRVVSVLTVLHQDWLNGKEYKCKVSNKGLPSSIEKTISKAKGQPREPQVYTLPPSQEEMTKNQVSLTCLVKGFYPSDIAVEWESNGQPENNYKTTPPVLDSDGSFFLYSRLTVDKSRWQEGNVFSCSVMHEALHNHYTQKSLSLSLGGGGGSGGGGSGGGGSGGGGSESGYAQNGDLEDAELDDYSFSCYSQLEVNGSQHSLTCAFEDPDVNITNLEFEICGALVEVKCLNFRKLQEIYFIETKKFLLIGKSNICVKVGEKSLTCKKIDLTTIVKPEAPFDLSVVYREGANDFVVTFNTSHLQKKYVKVLMHDVAYRQEKDENKWTHVNLSSTKLTLLQRKLQPAAMYEIKVRSIPDHYFKGFWSEWSPSYYFRTPEINNSSGEMDGGSGGSGGSGGSGGSGGSGGSGGSGGSGGSGGSGGSGGSGGSGGSGGSGGSGGSGGSGGSGAAEGVQIQIIYFNLETVQVTWNASKYSRTNLTFHYRFNGDEAYDQCTNYLLQEGHTSGCLLDAEQRDDILYFSIRNGTHPVFTASRWMVYYLKPSSPKHVRFSWHQDAVTVTCSDLSYGDLLYEVQYRSPFDTEWQSKQENTCNVTIEGLDAEKCYSFWVRVKAMEDVYGPDTYPSDWSEVTCWQRGEIRDACAETPTPPKPKLSK light: DIVMTQSPLSLPVTPGEPASISCRSSQSLLYSIGYNYLDWYLQKSGQSPQLLIYLGSNRASGVPDRFSGSGSGTDFTLKISRVEAEDVGFYYCMQALQTPYTFGQGTKLEIKRTVAAPSVFIFPPSDEQLKSGTASVVCLLNNFYPREAKVQWKVDNALQSGNSQESVTEQDSKDSTYSLSSTLTLSKADYEKHKVYACEVTHQGLSSPVTKSFNRGECGGGGSGGGGSGGGGSGGGGSESGYAQNGDLEDAELDDYSFSCYSQLEVNGSQHSLTCAFEDPDVNITNLEFEICGALVEVKCLNFRKLQEIYFIETKKFLLIGKSNICVKVGEKSLTCKKIDLTTIVKPEAPFDLSVVYREGANDFVVTFNTSHLQKKYVKVLMHDVAYRQEKDENKWTHVNLSSTKLTLLQRKLQPAAMYEIKVRSIPDHYFKGFWSEWSPSYYFRTPEINNSSGEMDGGSGGSGGSGGSGGSGGSGGSGGSGGSGGSGGSGGSGGSGGSGGSGGSGGSGGSGGSGGSGAAEGVQIQIIYFNLETVQVTWNASKYSRTNLTFHYRFNGDEAYDQCTNYLLQEGHTSGCLLDAEQRDDILYFSIRNGTHPVFTASRWMVYYLKPSSPKHVRFSWHQDAVTVTCSDLSYGDLLYEVQYRSPFDTEWQSKQENTCNVTIEGLDAEKCYSFWVRVKAMEDVYGPDTYPSDWSEVTCWQRGEIRDACAETPTPPKPKLSK
